What was measured:
[1] = biological target: HLA-A2.1 MHC class I molecules on T2 cells (human); experiment: T2 cells pulsed with peptide, anti-HLA-A2.1 flow cytometry; Brefeldin A treatment: 0 hr
[2] = biological target: HLA-A2.1 MHC class I molecules on T2 cells (human); experiment: T2 cells pulsed with peptide, anti-HLA-A2.1 flow cytometry; Brefeldin A treatment: 2 hr
[3] = biological target: HLA-A2.1 MHC class I molecules on T2 cells (human); experiment: T2 cells pulsed with peptide, anti-HLA-A2.1 flow cytometry; Brefeldin A treatment: 4 hr
[4] = biological target: HLA-A2.1 MHC class I molecules on T2 cells (human); experiment: T2 cells pulsed with peptide, anti-HLA-A2.1 flow cytometry; Brefeldin A treatment: 6 hr
[5] = biological target: HLA-A2.1 MHC class I molecules on T2 cells (human); experiment: T2 cells pulsed with peptide, anti-HLA-A2.1 flow cytometry; Brefeldin A treatment: None
[6] = biological target: HLA-A2.1 MHC class I molecules on T2 cells (human); experiment: T2 cells pulsed with peptide, anti-HLA-A2.1 flow cytometry; Brefeldin A treatment: Overnight

Row | Binder | binding score (HLA-A2.1 fluorescence on T2 cells) [1] | binding score (HLA-A2.1 fluorescence on T2 cells) [2] | binding score (HLA-A2.1 fluorescence on T2 cells) [3] | binding score (HLA-A2.1 fluorescence on T2 cells) [4] | binding score (HLA-A2.1 fluorescence on T2 cells) [5] | binding score (HLA-A2.1 fluorescence on T2 cells) [6]
1 | LKMESLNFI (Synthetic nonamer) [CD20 peptide LKMESLNFI (SEQ ID NO: 10)] | 245 | 291 | 227 | 190 | 215 | 225
2 | SHFLKMESL (Synthetic nonamer) [CD20 peptide SHFLKMESL (SEQ ID NO: 11)] | 216 | 218 | 199 | 127 | 172 | 277
3 | AISGMILSI (Synthetic nonamer) [CD20 peptide AISGMILSI (SEQ ID NO: 7)] | 220 | 256 | 165 | 144 | 162 | 232
4 | LLFLTPMEV (Synthetic nonamer) [CD19 peptide LLFLTPMEV (SEQ ID NO: 3)] | 770 | 924 | 880 | 573 | 556 | 453
5 | LLFFLLFLV [CD19 peptide LLFFLLFLV (SEQ ID NO: 5)] | 200 | 202 | 163 | 143 | 164 | 200

More lines, now with the values ahead:

Row | binding score (HLA-A2.1 fluorescence on T2 cells) [1] | binding score (HLA-A2.1 fluorescence on T2 cells) [2] | binding score (HLA-A2.1 fluorescence on T2 cells) [3] | binding score (HLA-A2.1 fluorescence on T2 cells) [4] | binding score (HLA-A2.1 fluorescence on T2 cells) [5] | binding score (HLA-A2.1 fluorescence on T2 cells) [6] | Binder
6 | 212 | 200 | 180 | 128 | 172 | 195 | SLNFIRAHT (Synthetic nonamer) [CD20 peptide SLNFIRAHT (SEQ ID NO: 9)]
7 | 672 | 703 | 762 | 770 | 637 | 410 | SLFLGILSV (Synthetic nonamer) [CD20 peptide SLFLGILSV (SEQ ID NO: 6)]
8 | 167 | 202 | 174 | 152 |  | 248 | RLLFFLLFL (Synthetic nonamer) [CD19 peptide RLLFFLLFL (SEQ ID NO: 1)]
9 | 683 |  | 796 | 642 |  | 540 | KLMSPKLYV (Synthetic nonamer) [CD19 peptide KLMSPKLYV (SEQ ID NO: 4)]
10 | 530 | 608 | 513 | 387 | 363 | 312 | TLAYLIFCL (Synthetic nonamer) [CD19 peptide TLAYLIFCL (SEQ ID NO: 2)]
11 | 232 | 215 | 192 | 154 | 167 | 250 | FIRAHTPYI (Synthetic nonamer) [CD20 peptide FIRAHTPYI (SEQ ID NO: 8)]

Reference: US20050048071A1 (RUSH UNIVERSITY MEDICAL CENTER, published 2005)
